Results reported in US20120100141A1.

Molecular target: Mouse GLP-1 receptor (mouse) (UniProt O35659)
Test: cell-based or functional assay

Mouse GLP-1 receptor (mouse), sequence (O35659 22-463): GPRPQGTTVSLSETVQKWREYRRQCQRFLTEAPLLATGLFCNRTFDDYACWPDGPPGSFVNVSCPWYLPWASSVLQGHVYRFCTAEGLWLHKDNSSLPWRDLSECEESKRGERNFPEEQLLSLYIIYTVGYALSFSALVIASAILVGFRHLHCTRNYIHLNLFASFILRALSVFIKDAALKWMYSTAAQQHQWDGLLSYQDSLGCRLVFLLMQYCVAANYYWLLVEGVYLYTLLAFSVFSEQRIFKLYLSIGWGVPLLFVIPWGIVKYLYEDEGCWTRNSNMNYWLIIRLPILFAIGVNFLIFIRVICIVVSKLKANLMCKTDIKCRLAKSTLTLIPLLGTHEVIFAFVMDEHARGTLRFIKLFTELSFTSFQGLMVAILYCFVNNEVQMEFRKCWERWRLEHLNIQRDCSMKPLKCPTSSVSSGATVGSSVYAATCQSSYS

pEC50, melanophore functional GLP-1R bioassay: 11.5
Substance: GLP-1 (7-36) (from UniProt P01275 98-127) (peptide)
